Measurements as given in the supplement of paper PMC11865577.

What was measured:
Test in all cases: pull-down binding Z-score (relative to library population); higher = stronger binding
Conditions in all cases: RNA library: Library-2
[1] = test system: TO-3-N3 (biotin conjugate)
Procedure, shortened: (§1)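 A heat-folded, dye-end-labelled (Cy5 or Cy3) RNA library (1 μg, phosphate/NaCl/KCl buffer) was exposed for 60 min at 25 °C to streptavidin beads holding 100 pmol of biotin-conjugated small molecule. RNA retained on the beads was eluted in hot SDS and hybridised to a DNA barcode microarray for 20 h at 55.5 °C. Binding scores were Z-scores against the library mean and standard deviation, calculated after subtracting beads alone and taking trimmed means of replicate probes.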

[2] = test system: TO-3-N3-2 (biotin conjugate)
Procedure, shortened: as §1

[3] = test system: TO-N3 (biotin conjugate)
Procedure, shortened: as §1

[4] = test system: TO-N3-2 (biotin conjugate)
Procedure, shortened: as §1

| Sequence | pull-down binding Z-score [1] | pull-down binding Z-score [2] | pull-down binding Z-score [3] | pull-down binding Z-score [4] |
| --- | --- | --- | --- | --- |
| UCUCCUCAUUUACUGUGAAUGUGAGGGGA [IAV_invivo_PB2_1_Motif_31+IAV_invivo_PB2_1_Motif_31] | -0.428 | -0.219 | -0.72 | -0.905 |
| UCUCGUUCACUGGGGA [IAV_invivo_PA_3_Motif_5+IAV_invivo_PA_3_Motif_5] | 0.366 | 0.0349 | 0.198 | -0.216 |
| UCUCUAAUGAGA | -0.823 | -0.652 | -1.38 | -1.53 |
| UCUCUAUGACAAACUUGUUUCAAGCUUUUUGGAAAUGAAGAGUGAAAAGCAAGUUGAACAAAAGAUCGCUGAGA [SHAPE_invitro_SARS-CoV-2_Motif_69] | -0.0465 | -0.507 | -0.0892 | 0.388 |
| UCUCUCUCAUUUUGUUAACUUAGACAACCUGAGAGCUAAUAACACUAAAGGUUCAUUGCCUAUUAAUGUUAUAGUUUUUGAUGGUAAAUCAAAAUGUGAAGA [DMSMaPseq_invitro_SARS-CoV-2_Motif_146] | -0.765 | -0.388 | -0.723 | -0.699 |
| UCUGAAGAAGUAGUGGAAAAUCCUACCAUACAGA [DMSMaPseq_invitro_SARS-CoV-2_Motif_122] | -0.124 | -0.226 | 0.657 | 0.514 |
| UCUGACAGUCCAUGUGAGUCUCAUGGAAAACAAGUAGUGUCAGA [SHAPE_invivo_SARS-CoV-2_Motif_364] | -0.582 | -0.0689 | -0.868 | -0.73 |
| UCUGCACUGUUAGCGGGUACAAUCACUUCUGGUUGGACCUUUGGUGCAGG | -0.66 | -0.38 | -0.815 | -1.07 |
| UCUGCCUAUACAGUUGAACUCGGUACAGAAGUAAAUGAGUUCGCCUGUGUUGUGGCAGA [SHAPE_invivo_SARS-CoV-2_Motif_57] | -0.71 | -0.334 | -0.415 | 1.36 |
| UCUGCUCGCAUAGUGUAUACAGCUUGCUCUCAUGCCGCUGUUGAUGCACUAUGUGAGAAGGCAUUAAAAUAUUUGCCUAUAGA | -0.598 | -0.447 | -0.615 | -0.0527 |
| UCUGGAGUAAAAGACUGUGUUGUAUUACACAGUUACUUCACUUCAGA | -0.0665 | -0.0465 | -0.481 | -0.98 |
| UCUGUACCGUCUGCGGUAUGUGGA [DMSMaPseq_invitro_SARS-CoV-2_Motif_240] | -0.562 | -0.475 | -0.694 | 0.111 |
| UCUGUUUGGAACUUUAAUUUUAGCCAUGGCAGA | -0.689 | -0.0381 | -0.72 | 0.0796 |
| UCUUAAGAGAGGUGAUAAAAGUGUAUAUUACACUAGUAAUCCUACCACAUUCCACCUAGAUGGUGAAGUUAUCACCUUUGACAAUCUUAAGA | 0.836 | -0.0579 | 0.528 | -0.559 |
| UCUUCAGGUUGGACAGCUGGUGCUGCAGCUUAUUAUGUGGGUUAUCUUCAACCUAGGA [DMSMaPseq_invitro_SARS-CoV-2_Multi_66_ComplexLevel_1] | -0.145 | -0.178 | 0.0485 | 0.0317 |
| UCUUGCCGAAUACCAUAAUGAAUCUGGCUUGA [SHAPE_invivo_SARS-CoV-2_Motif_27] | -0.617 | -0.354 | -0.631 | 0.0939 |
| UCUUUAAGGAAGGAAGUUCUGUUGAAUUAAAACACUUCUUCUUUGCUCAGGA [DMSMaPseq_invitro_SARS-CoV-2_Motif_265] | -0.904 | -0.179 | -1.23 | -0.953 |
| UCUUUAUUUGACAUGAGUAAAUUUCCCCUUAAAUUAAGGGGUACUGCUGUUAUGUCUUUAAAAGA [SHAPE_invitro_SARS-CoV-2_Motif_387] | -0.896 | 0.0957 | -0.894 | -0.575 |
| UCUUUCAUGGGA [DMSMaPseq_invitro_SARS-CoV-2_Motif_300] | 0.66 | 0.0379 | 0.363 | -0.26 |
| UGAACCACAAAUCA [SHAPE_invitro_SARS-CoV-2_Motif_451] | -0.745 | -0.565 | -1.04 | -0.906 |
| UGAAGUAUUUUGUGAAAAUAGGACCUGAGCGCACCUGUUGUCUAUGUGAUAGACGUGCCACAUGCUUUUCCACUGCUUCA [SHAPE_invitro_SARS-CoV-2_Motif_342] | -0.573 | -0.335 | -0.477 | 0.0857 |
| UGAAUUAGACUCAUUCA [DMSMaPseq_invitro_SARS-CoV-2_Motif_447] | -0.55 | -0.45 | -0.643 | -0.825 |

| Sequence | pull-down binding Z-score [1] | pull-down binding Z-score [2] | pull-down binding Z-score [3] | pull-down binding Z-score [4] |
| --- | --- | --- | --- | --- |
| UGACAUGACUCUUGAGGAAAUGUCA [IAV_invivo_NS1_NEP_8_Motif_7+IAV_invivo_NS1_NEP_8_Motif_7] | -0.475 | -0.773 | -0.87 | -1.21 |
| UGACAUUACACCAUGUUCUUUUGGUGGUGUCA | -0.87 | -0.423 | -1.29 | -1.47 |
| UGACCAGUCUUCUUACAUCGUUGAUAGUGUUACAGUGAAGAAUGGUUCCAUCCAUCUUUACUUUGAUAAAGCUGGUCA | -0.506 | -0.33 | -0.675 | -0.863 |
| UGACGAUGCUGUUGUGUGUUUCAAUAGCACUUAUGCAUCUCA [SHAPE_invitro_SARS-CoV-2_Motif_289] | 1.24 | -0.0833 | 1.01 | -0.71 |
| UGAGUACUGUAGGCACGGCACUUGUGAAAGAUCAGAAGCUGGUGUUUGUGUAUCUACUAGUGGUAGAUGGGUACUUA [DMSMaPseq_invitro_SARS-CoV-2_Multi_29_ComplexLevel_1] | -0.254 | -0.0976 | 0.0497 | 0.628 |
| UGAGUGUGACAUACCCAUUGGUGCAGGUAUAUGCGCUAGUUAUCAGACUCA | 0.734 | 0.422 | 0.865 | 0.541 |
| UGAUAAAUUCA [SHAPE_invivo_SARS-CoV-2_Motif_325] | -0.376 | -0.375 | -0.712 | -1.19 |
| UGAUAGUCAACAAACUGUUGGUCAACAAGACGGCAGUGAGGACAAUCA | 0.68 | 0.241 | 0.595 | -0.167 |
| UGAUGCAGCCAUGCAACGUAAGUUGGAAAAGAUGGCUGAUCA | -1.03 | -0.36 | -1.16 | -0.974 |
| UGAUGCGUAUUAUGACAUGGUUGGAUAUGGUUGAUACUAGUUUGUCUGGUUUUAAGCUAAAAGACUGUGUUAUGUAUGCAUCA | -0.867 | -0.285 | -0.861 | -0.569 |
| UGAUGGUGUUCCAUUUGUAGUUUCAACUGGAUACCACUUCA [DMSMaPseq_invitro_SARS-CoV-2_Motif_261] | -0.0305 | -0.236 | -0.387 | -0.82 |
| UGAUGUCACAGAUGUGACUCA | -0.773 | -0.677 | -1.09 | -0.946 |
| UGAUGUUUGUCA | -0.46 | -0.778 | -0.762 | -1.2 |
| UGAUUUUUGUGGAAAGGGCUAUCAUCUUAUGUCCUUCCCUCAGUCA [SHAPE_invivo_SARS-CoV-2_Motif_462] | -0.662 | -0.0472 | -0.702 | -0.49 |
| UGCAACGAUACCGAUACAAGCCUCACUCCCUUUCGGAUGGCUUAUUGUUGGCGUUGCA | -0.475 | -0.134 | -0.366 | -0.000368 |
| UGCAAGAGAUGGUUGUGUUCCCUUGAACAUAAUACCUCUUACA [DMSMaPseq_invitro_SARS-CoV-2_Motif_219] | -0.678 | -0.0456 | -1.01 | -1.18 |
| UGCACUUGACCCUCUCUCAGAAACAAAGUGUA | 0.756 | -0.162 | 0.625 | -0.236 |
| UGCAGAUUCAACUUUGAUUGGUGAUUGUGCA | 0.338 | 0.191 | 0.273 | -0.565 |
| UGCAGAUUUGGAUGAUUUCUCCAAACAAUUGCA | 0.0526 | -0.117 | -0.0544 | -0.51 |
| UGCAGCAGAAACGCUCA [SHAPE_invitro_SARS-CoV-2_Motif_303] | 0.273 | 0.0228 | 0.371 | 0.533 |
| UGCAUUUCUUACCUAGAGUUUUUAGUGCA [DMSMaPseq_invitro_SARS-CoV-2_Motif_163] | -0.82 | -0.416 | -1.09 | -1.24 |
| UGCCAUUUGUCAUGAUGGAAAAGCACACUUUCCUCGUGAAGGUGUCUUUGUUUCAAAUGGCA [SHAPE_invivo_SARS-CoV-2_Motif_465] | -0.108 | -0.218 | -0.0789 | -0.463 |

| Sequence | pull-down binding Z-score [1] | pull-down binding Z-score [2] | pull-down binding Z-score [3] | pull-down binding Z-score [4] |
| --- | --- | --- | --- | --- |
| UGCCGACUACUAUAGCAAAGAAUACUGUUAAGAGUGUCGGUA | -0.357 | -0.206 | -0.385 | -0.182 |
| UGCCUUCAAACUCAACAUUAAAUUGUUGGGUGUUGGUGGCA | -0.701 | -0.352 | -0.909 | -1.07 |
| UGCGAGAAAUGCUUGCA [SHAPE_invitro_SARS-CoV-2_Motif_85] | 1.12 | -0.0133 | 0.918 | -0.155 |
| UGCUAACUAAGGGCA | 0.877 | -0.0827 | 0.627 | -0.388 |
| UGCUCAAGAAGCUUAUGAGCA [SHAPE_invivo_SARS-CoV-2_Motif_229] | -0.554 | 0.0729 | -0.253 | 0.0417 |
| UGCUGAGGCUUCUAAGAAGCCUCGGCA | 0.0854 | -0.197 | -0.224 | -1.28 |
| UGCUGUUGUUAAAAUUUAUUGUCCAGCA [SHAPE_invitro_SARS-CoV-2_Motif_28] | -0.341 | -0.134 | -0.582 | -0.921 |
| UGCUUUCGUGGUA | 0.137 | -0.292 | 0.0358 | -0.505 |
| UGCUUUGGUGUAAAGAUGGCCAUGUAGAAACAUUUUACCCAAAAUUACAAUCUAGUCAAGCGUGGCAACCGGGUGUUGCUAUGCCUAAUCUUUACAAAAUGCA | -0.104 | -0.00692 | 0.0858 | 0.252 |
| UGGAAUUGCAAUGUCGAUAGAUAUCCUGCUAAUUCCA | -0.0259 | 0.0197 | 0.0215 | -0.0708 |
| UGGAGGAAUACAAAUCCA [SHAPE_invitro_SARS-CoV-2_Motif_386] | 0.291 | 0.00658 | 0.109 | -0.404 |
| UGGAUGUAAUUAUCUUGGCAAACCACGCGAACAAAUAGAUGGUUAUGUCAUGCAUGCA | -0.833 | -0.0277 | -0.682 | 0.157 |
| UGGCAUGGAAGUCA [DMSMaPseq_invitro_SARS-CoV-2_Motif_525] | 0.0287 | -0.289 | -0.262 | -0.318 |
| UGGCAUUAAUGCUUCAGUUGUAAACAUUCAAAAAGAAAUUGACCGCCUCAAUGAGGUUGCCA | -0.964 | -0.207 | -1.1 | -0.663 |
| UGGCCAUGGUACAUUUGGCUA | 0.537 | -0.0742 | 0.286 | -0.59 |
| UGGCCCCGAUUUCAGCUAUGGUUA [SHAPE_invitro_SARS-CoV-2_Motif_146] | -0.129 | -0.0487 | -0.032 | 0.341 |
| UGGCCGCAAAUUGCACAAUUUGCCCCCA [SHAPE_invitro_SARS-CoV-2_Motif_532] | -0.293 | -0.435 | -0.363 | -0.6 |
| UGGGAUAUUGCCCG [IAV_invivo_PB2_1_Motif_20+IAV_invivo_PB2_1_Motif_20] | -0.462 | -0.289 | -0.0714 | -0.104 |
| UGGGAUUAUCCUA [DMSMaPseq_invitro_SARS-CoV-2_Motif_276] | 0.251 | -0.249 | -0.106 | -0.609 |
| UGGGCACACUUUCUUAUGAACAAUUUAAGAAAGGUGUUCA [SHAPE_invivo_SARS-CoV-2_Motif_116] | -0.385 | -0.384 | -0.52 | -0.779 |
| UGGGGACCAGGAACUAAUCAGACAAGGAACUGAUUACAAACAUUGGCCGCAAAUUGCACAAUUUGCCCCCA | -0.075 | 0.0998 | 0.312 | 0.83 |
